This note sets out measurements from US20140248636.

B1: Mina53 (A26-V465), N-terminally hexa-His tagged, recombinant (protein)
chain: AAGGPSALNFDSPSSLFESLISPIKTETFFKEFWEQKPLLIQRDDPALATYYGSLFKLTDLKSLCSRGMYYGRDVNVCRCVNGKKKVLNKDGKAHFLQLRKDFDQKRATIQFHQPQRFKDELWRIQEKLECYFGSLVGSNVYITPAGSQGLPPHYDDVEVFILQLEGEKHWRLYHPTVPLAREYSVEAEERIGRPVHEFMLKPGDLLYFPRGTIHQADTPAGLAHSTHVTISTYQNNSWGDFLLDTISGLVFDTAKEDVELRTGIPRQLLLQVESTTVATRRLSGFLRTLADRLEGTKELLSSDMKKDFIMHRLPPYSAGDGAELSTPGGKLPRLDSVVRLQFKDHIVLTVLPDQDQSDEAQEKMVYIYHSLKNSRETHMMGNEEETEFHGLRFPLSHLDALKQIWNSPAISVKDLKLTTDEEKESLVLSLWTECLIQVV
For the protein B1, in the data set with RpL27a31-50 peptide (…), the “extent of peptide hydroxylation by MALDI-TOF” value is reported as “hydroxylated to ˜95% as tested by MALDI-TOF analyses” and the “mass increase of the peptide by MALDI-TOF (hydroxylation)” value is reported as “displayed a 16 Da increase in mass”.

B2: NO66 (A116-N641), N-terminally hexa-His tagged, recombinant (protein)
chain: QTPSARLVPASAPPARLVEVPAAPVRVVETSALLCTAQHLAAVQSSGAPATASGPQVDNTGGEPAWDSPLRRVLAELNRIPSSRRRAARLFEWLIAPMPPDHFYRRLWEREAVLVRRQDHTYYQGLFSTADLDSMLRNEEVQFGQHLDAARYINGRRETLNPPGRALPAAAWSLYQAGCSLRLLCPQAFSTTVWQFLAVLQEQFGSMAGSNVYLTPPNSQGFAPHYDDIEAFVLQLEGRKLWRVYRPRVPTEELALTSSPNFSQDDLGEPVLQTVLEPGDLLYFPRGFIHQAECQDGVHSLHLTLSTYQRNTWGDFLEAILPLAVQAAMEENVEFRRGLPRDFMDYMGAQHSDSKDPRRTAFMEKVRVLVARLGHFAPVDAVADQRAKDFIHDSLPPVLTDRERALSVYGLPIRWEAGEPVNVGAQLTTETEVHMLQDGIARLVGEGGHLFLYYTVENSRVYHLEEPKCLEIYPQQADAMELLLGSYPEFVRVGDLPCDSVEDQLSLATTLYDKGLLLTKMPLALN
Regarding B2, in the data set with RpL8 209-228 peptide (…), the “extent of peptide hydroxylation by MALDI-TOF” value is recorded as “hydroxylated to ˜85% as tested by MALDI-TOF analyses” and the “mass increase of the peptide by MALDI-TOF (hydroxylation)” value is reported as “displayed 16 Da increase in mass”.
